In patent US20240025992A1 (Janssen / Centocor, published 2024):

T1: human DLL3 on DLL3+ tumor cells (human, UniProt Q9NYJ7 27-618)
T1 sequence: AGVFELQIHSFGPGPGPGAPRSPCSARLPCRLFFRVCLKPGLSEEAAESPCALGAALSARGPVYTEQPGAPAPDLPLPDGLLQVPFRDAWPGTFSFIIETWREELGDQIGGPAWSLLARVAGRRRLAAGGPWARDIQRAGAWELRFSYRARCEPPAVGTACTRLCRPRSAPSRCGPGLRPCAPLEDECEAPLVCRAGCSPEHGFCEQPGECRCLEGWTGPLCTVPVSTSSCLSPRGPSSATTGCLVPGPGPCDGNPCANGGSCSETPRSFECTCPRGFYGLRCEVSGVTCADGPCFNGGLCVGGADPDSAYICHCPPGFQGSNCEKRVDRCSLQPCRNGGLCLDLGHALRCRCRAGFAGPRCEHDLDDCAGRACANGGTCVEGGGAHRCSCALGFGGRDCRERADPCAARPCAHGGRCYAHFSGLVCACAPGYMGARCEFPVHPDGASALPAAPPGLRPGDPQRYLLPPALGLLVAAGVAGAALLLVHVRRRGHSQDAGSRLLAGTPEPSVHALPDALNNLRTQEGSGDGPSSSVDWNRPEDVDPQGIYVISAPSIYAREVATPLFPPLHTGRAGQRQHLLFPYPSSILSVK

T2: recombinant human DLL3 (Example 9, construct not named) (human, UniProt Q9NYJ7 27-492, limits assumed)
T2 construct: also called DLL3 antigen
T2 sequence: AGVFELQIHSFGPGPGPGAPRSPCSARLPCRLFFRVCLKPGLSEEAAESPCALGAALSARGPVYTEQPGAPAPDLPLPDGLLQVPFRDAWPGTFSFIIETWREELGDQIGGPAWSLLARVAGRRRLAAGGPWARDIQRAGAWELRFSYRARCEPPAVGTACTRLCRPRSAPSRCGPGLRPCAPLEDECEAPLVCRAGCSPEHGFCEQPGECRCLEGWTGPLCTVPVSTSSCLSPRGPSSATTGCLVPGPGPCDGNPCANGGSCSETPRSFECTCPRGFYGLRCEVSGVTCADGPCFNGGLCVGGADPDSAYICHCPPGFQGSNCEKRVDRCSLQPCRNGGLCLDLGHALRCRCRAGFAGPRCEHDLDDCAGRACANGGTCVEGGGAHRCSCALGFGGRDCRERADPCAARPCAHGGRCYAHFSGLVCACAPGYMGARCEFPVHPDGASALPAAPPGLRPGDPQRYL

T3: DL3W35, extracellular domain of human DLL3 linked to a C-terminal 6xHis-Tag and a linker (human, UniProt Q9NYJ7 27-479)
T3 construct: also called human DLL3 ECD; huDLL3
T3 sequence: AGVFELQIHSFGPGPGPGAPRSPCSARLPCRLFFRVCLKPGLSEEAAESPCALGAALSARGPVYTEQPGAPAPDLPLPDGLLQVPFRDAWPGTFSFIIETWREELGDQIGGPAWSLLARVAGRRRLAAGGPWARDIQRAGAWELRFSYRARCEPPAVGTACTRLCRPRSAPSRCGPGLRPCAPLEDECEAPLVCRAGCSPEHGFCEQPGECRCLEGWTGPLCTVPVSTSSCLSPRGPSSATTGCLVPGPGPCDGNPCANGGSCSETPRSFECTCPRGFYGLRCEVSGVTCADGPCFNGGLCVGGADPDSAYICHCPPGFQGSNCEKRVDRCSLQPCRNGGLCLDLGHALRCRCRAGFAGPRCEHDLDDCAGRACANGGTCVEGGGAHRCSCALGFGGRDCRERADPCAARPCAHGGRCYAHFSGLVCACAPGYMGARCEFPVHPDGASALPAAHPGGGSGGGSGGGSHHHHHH

T4: DL3W33, Recombinant Human DLL1 ECD (Ser22-Gly540), -DI-C-6xHis (human, UniProt O00548 22-540)
T4 construct: also called huDLL1; TPP000049465
T4 sequence: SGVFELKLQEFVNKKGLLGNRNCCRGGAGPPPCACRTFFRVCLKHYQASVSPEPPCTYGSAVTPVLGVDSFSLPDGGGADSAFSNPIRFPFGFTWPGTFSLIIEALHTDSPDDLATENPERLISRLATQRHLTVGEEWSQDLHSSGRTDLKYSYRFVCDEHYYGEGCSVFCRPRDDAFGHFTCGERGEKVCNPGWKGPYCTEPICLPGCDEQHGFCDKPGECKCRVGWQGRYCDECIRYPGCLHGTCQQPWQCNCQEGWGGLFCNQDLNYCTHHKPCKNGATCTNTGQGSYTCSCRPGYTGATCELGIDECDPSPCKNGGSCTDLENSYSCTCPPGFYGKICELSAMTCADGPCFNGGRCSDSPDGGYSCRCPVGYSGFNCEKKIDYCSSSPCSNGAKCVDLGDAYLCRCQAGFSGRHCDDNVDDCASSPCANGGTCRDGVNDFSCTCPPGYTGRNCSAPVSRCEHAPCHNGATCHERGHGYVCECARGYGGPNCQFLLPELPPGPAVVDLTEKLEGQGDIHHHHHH

B1: DL3B582 (bispecific antibody)
heavy: QVQLVQSGAEVKKPGASVKVSCKASGNTFTNYYIHWVRQAPGQGLEWMGIINPSGGSTSYAQKLQGRMTMTRDTSTSTVYMELSSLRSEDTAVYFCARQGPFIGDAFDIWGQGTMVTVSSASTKGPSVFPLAPSSKSTSGGTAALGCLVKDYFPEPVTVSWNSGALTSGVHTFPAVLQSSGLYSLSSVVTVPSSSLGTQTYICNVNHKPSNTKVDKKVEPKSCDKTHTCPPCPAPEAAGGPSVFLFPPKPKDTLMISRTPEVTCVVVSVSHEDPEVKFNWYVDGVEVHNAKTKPREEQYNSTYRVVSVLTVLHQDWLNGKEYKCKVSNKALPAPIEKTISKAKGQPREPQVYVLPPSREEMTKNQVSLLCLVKGFYPSDIAVEWESNGQPENNYLTWPPVLDSDGSFFLYSKLTVDKSRWQQGNVFSCSVMHEALHNHYTQKSLSLSPG
light: DIQMTQSPSSLSASVGDRVTITCRASQGISNYLAWFQQKPGKAPKSLIYAASSLQSGVPSKFSGSGSGTDFTLTISSLQPEDFATYYCQQYNSYPYTFAQGTKLEIKRTVAAPSVFIFPPSDEQLKSGTASVVCLLNNFYPREAKVQWKVDNALQSGNSQESVTEQDSKDSTYSLSSTLTLSKADYEKHKVYACEVTHQGLSSPVTKSFNRGEC
scFv: DIQMTQSPSSLSASVGDRVTITCRARQSIGTAIHWYQQKPGKAPKLLIKYASESISGVPSRFSGSGSGTDFTLTISSLQPEDFATYYCQQSGSWPYTFGQGTKLEIKGGSEGKSSGSGSESKSTGGSEVQLVESGGGLVKPGGSLRLSCAASGFTFSRYNMNWVRQAPGKGLEWVSSISTSSNYIYYADSVKGRFTFSRDNAKNSLDLQMSGLRAEDTAIYYCTRGWGPFDYWGQGTLVTVSSEPKSSDKTHTCPPCPAPEAAGGPSVFLFPPKPKDTLMISRTPEVTCVVVSVSHEDPEVKFNWYVDGVEVHNAKTKPREEQYNSTYRVVSVLTVLHQDWLNGKEYKCKVSNKALPAPIEKTISKAKGQPREPQVYVYPPSREEMTKNQVSLTCLVKGFYPSDIAVEWESNGQPENNYKTTPPVLDSDGSFALVSKLTVDKSRWQQGNVFSCSVMHEALHNHYTQKSLSLSPG
notes: DLL3 arm: DL3B279-Fab-Fc; CD3 arm: CD3W245-LH-scFv-Fc; IgG1 with L234A/L235A/D265S and heterodimerization mutations; also called CD3W245-LH-scFv; DL3B279-Fab
B2: DL3B583 (bispecific antibody)
heavy: B1 heavy
light: B1 light
scFv: EVQLVESGGGLVKPGGSLRLSCAASGFTFSRYNMNWVRQAPGKGLEWVSSISTSSNYIYYADSVKGRFTFSRDNAKNSLDLQMSGLRAEDTAIYYCTRGWGPFDYWGQGTLVTVSSGGSEGKSSGSGSESKSTGGSDIQMTQSPSSLSASVGDRVTITCRARQSIGTAIHWYQQKPGKAPKLLIKYASESISGVPSRFSGSGSGTDFTLTISSLQPEDFATYYCQQSGSWPYTFGQGTKLEIKEPKSSDKTHTCPPCPAPEAAGGPSVFLFPPKPKDTLMISRTPEVTCVVVSVSHEDPEVKFNWYVDGVEVHNAKTKPREEQYNSTYRVVSVLTVLHQDWLNGKEYKCKVSNKALPAPIEKTISKAKGQPREPQVYVYPPSREEMTKNQVSLTCLVKGFYPSDIAVEWESNGQPENNYKTTPPVLDSDGSFALVSKLTVDKSRWQQGNVFSCSVMHEALHNHYTQKSLSLSPG
notes: DLL3 arm: DL3B279-Fab-Fc; CD3 arm: CD3W245-HL-scFv-Fc; IgG1 with L234A/L235A/D265S and heterodimerization mutations; also called CD3W245-HL-scFv; DL3B279-Fab
B3: DL3B569 (Fc fusion)
scFv: DIQMTQSPSSLSASVGDRVTITCRASQGISNYLAWFQQKPGKAPKSLIYAASSLQSGVPSKFSGSGSGTDFTLTISSLQPEDFATYYCQQYNSYPYTFAQGTKLEIKGGSEGKSSGSGSESKSTGGSQVQLVQSGAEVKKPGASVKVSCKASGNTFTNYYIHWVRQAPGQGLEWMGIINPSGGSTSYAQKLQGRMTMTRDTSTSTVYMELSSLRSEDTAVYFCARQGPFIGDAFDIWGQGTMVTVSS
notes: The conflict is not resolved; also called DL3B279 scFv-Fc; not shown: wild-type IgG1 Fc domain
B4: DL3B570 (Fc fusion)
scFv: EIVLTQSPGTLSLSPGERATLSCRASQSVSRSYLAWYQQKPGQAPRFLIYGASSRATGIPDRFSGSGSGTDFTLTISRLEPEDFAVYYCQQYGTSPITFGQGTRLEIKGGSEGKSSGSGSESKSTGGSQVQLQESGPGLVKPSETLSLSCTVSGDSIRSYYWSWIRQPPGKGLEWIGYIYYSGTTNYKSSLKSRVTISLDTSKKQFSLNLDSVTAADTAVYYCARIGPAGFYFDYWGQGTLVTVSS
notes: also called DL3B332 scFv-Fc; not shown: wild-type IgG1 Fc domain
B5: DL3B571 (Fc fusion)
scFv: EIVLTQSPGTLSLSPGERATLSCRASQSASSYLAWYQQKPGQAPRLLIYGASSRATGIPDRFSGSGSGTDFTLTISRLEPEDFAVYYCQQYNSSPYTFGQGTKLEIKGGSEGKSSGSGSESKSTGGSQVQLVQSGAEVKKPGASVKVSCKASGHIFISYYIHWVRQAPGQGLEWMGIIDPSGGSKSYAQKFQGRVTMTRDTSTSTVYMELSSLRSEDTAVYYCARQGMIVGTTGDAFDIWGQGTMVTVSS
notes: also called DL3B358 scFv-Fc; not shown: wild-type IgG1 Fc domain
B6: DL3B572 (Fc fusion)
scFv: EVQLVQSGAEVKKPGASVKVSCKASGYTFTTYYIHWVRQAPGQGLEWMGIIDPSGGRTSYAQKFLGRVTMTRDTSTSTVYMELRSLRSEDTAVYYCARGGDGTWYYGMDVWGQGTTVTVSSGGSEGKSSGSGSESKSTGGSDIVMTQSPSFLSASVGDRVTITCRASQGISNYLAWYQQKPGKAPKLLIYAASTLQSGVPSRFSGSGSGTEFTLTISSLQPEDFATYYCQQLNSYPLTFGGGTKVEIK
notes: also called DL3B409 scFv-Fc; not shown: wild-type IgG1 Fc domain

Legend:
[1] = target: T1, human DLL3 on DLL3+ tumor cells; test: cell-based or functional assay
[2] = target: T2, recombinant human DLL3 (Example 9, …); test: SPR (Biacore T200), antibody captured by goat anti-Fc on a C1 chip, DLL3 titrated
Protocol: The binding affinity of anti-DLL3×CD3 antibodies to the recombinant human DLL3 was determined by surface plasmon resonance (SPR) using a Biacore T200 instrument. […] The association was monitored for 2 minutes and the and dissociation for 5 or 60 minutes, using a flow rate of 100 μL/min. Raw binding data was referenced by subtracting the analyte binding signals from blanks and analyzed using a 1:1 Langmuir binding model using the Biacore Insight evaluation software to obtain the kinetics which were used to calculate the binding affinity.

[3] = target: T5, DL3W34, human DLL4 ECD (Ser27-Pro524), C-10xHis (human, UniProt Q9NR61 27-524); test: SPR (ProteOn), antibody captured by anti-Fc; DLL4 at 100 nM and 1000 nM
T5 construct: also called huDLL4; TPP0000494661
T5 sequence (Q9NR61 other isoform, or with tags, fused parts or gaps limits assumed): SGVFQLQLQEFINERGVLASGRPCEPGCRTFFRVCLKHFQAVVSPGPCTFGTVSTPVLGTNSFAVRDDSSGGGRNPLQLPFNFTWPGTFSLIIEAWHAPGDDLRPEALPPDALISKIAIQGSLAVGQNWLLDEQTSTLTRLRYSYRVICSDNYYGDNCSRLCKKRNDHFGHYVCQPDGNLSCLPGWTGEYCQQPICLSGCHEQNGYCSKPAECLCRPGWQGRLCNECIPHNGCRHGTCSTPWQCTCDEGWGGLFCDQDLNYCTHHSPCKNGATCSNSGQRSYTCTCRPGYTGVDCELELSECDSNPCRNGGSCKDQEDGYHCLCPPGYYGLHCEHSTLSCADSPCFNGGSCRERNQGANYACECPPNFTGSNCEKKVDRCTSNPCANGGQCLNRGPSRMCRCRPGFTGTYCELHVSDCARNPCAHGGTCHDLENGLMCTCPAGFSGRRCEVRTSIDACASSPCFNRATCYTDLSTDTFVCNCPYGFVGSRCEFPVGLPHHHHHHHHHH
Protocol: (§1) The association and dissociation were monitored for 5 and 30 minutes, respectively, using a flow rate of 50 μL/min. Kinetic information (on-rate and off-rate constants) were extracted by fitting sensorgrams to the 1:1 Langmuir binding model. Binding affinity (KD) are reported as the ratio of rate constants (koff/kon).

[4] = target: T3, DL3W35, extracellular domain of human …; test: SPR (ProteOn), antibody captured by anti-Fc, DLL3 (DL3W35) titrated
Protocol: as §1

[5] = target: T6, DL3W37, human DLL3 EGF6 domain, HSA Fusion and C-term 6His tag (human); test: MSD plate binding assay on coated DLL3 domain-HSA fusions
T6 construct: Fusion with the C34S variant of human serum albumin at the C-terminus of the DLL3 subdomain, plus 6xHis
T6 sequence (chain, as listed by the source limits assumed): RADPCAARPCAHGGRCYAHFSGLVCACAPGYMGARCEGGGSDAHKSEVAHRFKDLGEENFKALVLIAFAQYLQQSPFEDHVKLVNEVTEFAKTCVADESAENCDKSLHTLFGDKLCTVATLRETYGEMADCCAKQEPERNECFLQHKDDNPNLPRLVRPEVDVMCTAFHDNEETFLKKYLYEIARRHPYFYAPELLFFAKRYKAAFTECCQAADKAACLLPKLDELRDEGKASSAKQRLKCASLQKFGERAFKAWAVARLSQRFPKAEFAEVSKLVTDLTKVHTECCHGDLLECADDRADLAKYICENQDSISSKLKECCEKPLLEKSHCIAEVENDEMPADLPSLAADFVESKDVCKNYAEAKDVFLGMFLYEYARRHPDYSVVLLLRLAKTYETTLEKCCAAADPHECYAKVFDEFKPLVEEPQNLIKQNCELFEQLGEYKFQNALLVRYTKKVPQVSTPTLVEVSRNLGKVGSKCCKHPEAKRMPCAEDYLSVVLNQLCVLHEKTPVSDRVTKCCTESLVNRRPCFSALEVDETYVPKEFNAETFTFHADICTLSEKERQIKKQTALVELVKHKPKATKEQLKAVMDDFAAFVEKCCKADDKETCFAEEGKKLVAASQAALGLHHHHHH
Protocol: The plates were washed with PBS with 0.1% Tween and then blocked with Starting block solution for 30 minutes. […] Antigen bound antibody was detected with sulfo-tagged anti-human antibody (Meso Scale Discovery, R32AJ) for 60 minutes at ambient temperature followed by another PBS wash. Signal acquisition was done in the presence of 1× MSD read buffer T (MSD, Cat #R92TC-1) on the MSD Sector 600 imager with appropriate plate settings. Data was analyzed for the highest binding signal per domain indicating the preferential domain binding.

[6] = target: T4, DL3W33, Recombinant Human DLL1 ECD …; test: SPR (ProteOn), antibody captured by anti-Fc; DLL1 at 100 nM and 1000 nM
Protocol: as §1

Binder | Cytotoxicity (% Lysis), G361, whole PBMCs, 1:1 ET ratio, 30 nM [1] [%] | Cytotoxicity (% Lysis), HCC1833, whole PBMCs, 1:1 ET ratio, 30 nM [1] [%] | Cytotoxicity (% Lysis), SHP-77, whole PBMCs, 1:1 ET ratio, 30 nM [1] [%] | Kd [2] [nM] | binding result [3] | Kd [4] [nM] | binding result [5] | binding result [6]
B1 | 98.9 | 93.7 | 87.3 | 0.016 |  |  |  | 
B2 | 98.9 | 88.4 | 99.8 | 0.016 |  |  |  | 
B3 |  |  |  |  | no binding (tested: 1000 nM) | 0.147 | binds | no binding (tested: 1000 nM)
B4 |  |  |  |  | no binding (tested: 1000 nM) | 0.0668 | binds | no binding (tested: 1000 nM)
B5 |  |  |  |  | no binding (tested: 1000 nM) | 0.0734 | binds | no binding (tested: 1000 nM)
B6 |  |  |  |  | no binding (tested: 1000 nM) | 2.32 |  | no binding (tested: 1000 nM)
